T1: recombinant SNAP-tagged NLRP1^DR purified from bacteria
T1 chain: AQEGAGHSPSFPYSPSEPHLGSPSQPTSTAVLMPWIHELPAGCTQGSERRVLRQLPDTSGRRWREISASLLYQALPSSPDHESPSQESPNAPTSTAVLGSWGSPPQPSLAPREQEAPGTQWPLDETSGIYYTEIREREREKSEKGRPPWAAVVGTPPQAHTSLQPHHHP


Molecular target: T1, recombinant SNAP-tagged NLRP1^DR …

Protein | phosphorylation in a recombinant kinase assay | phosphorylation in a recombinant kinase reaction (PhosTag SDS-PAGE, SNAP ligand fluorescence)
p38β (protein) MSGPRAGFYRQELNKTVWEVPQRLQGLRPVGSGAYGSVCSAYDARLRQKVAVKKLSRPFQSLIHARRTYRELRLLKHLKHENVIGLLDVFTPATSIEDFSEVYLVTTLMGADLNNIVKCQALSDEHVQFLVYQLLRGLKYIHSAGIIHRDLKPSNVAVNEDCELRILDFGLARQADEEMTGYVATRWYRAPEIMLNWMHYNQTVDIWSVGCIMAELLQGKALFPGSDYIDQLKRIMEVVGTPSPEVLAKISSEHARTYIQSLPPMPQKDLSSIFRGANPLAIDLLGRMLVLDSDQRVSAAEALAHAYFSQYHDPEDEPEAEPYDESVEAKERTLEEWKELTYQEVLSFKPPEPPKPPGSLEIEQ | both p38α/β can phosphorylate NLRP1^DR in a recombinant kinase assay | –
ZAKα kinase (wild-type) (protein) MSSLGASFVQIKFDDLQFFENCGGGSFGSVYRAKWISQDKEVAVKKLLKIEKEAEILSVLSHRNIIQFYGVILEPPNYGIVTEYASLGSLYDYINSNRSEEMDMDHIMTWATDVAKGMHYLHMEAPVKVIHRDLKSRNVVIAADGVLKICDFGASRFHNHTTHMSLVGTFPWMAPEVIQSLPVSETCDTYSYGVVLWEMLTREVPFKGLEGLQVAWLVVEKNERLTIPSSCPRSFAELLHQCWEADAKKRPSFKQIISILESMSNDTSLPDKCNSFLHNKAEWRCEIEATLERLKKLERDLSFKEQELKERERRLKMWEQKLTEQSNTPLLPSFEIGAWTEDDVYCWVQQLVRKGDSSAEMSVYASLFKENNITGKRLLLLEEEDLKDMGIVSKGHIIHFKSAIEKLTHDYINLFHFPPLIKDSGGEPEENEEKIVNLELVFGFHLKPGTGPQDCKWKMYMEMDGDEIAITYIKDVTFNTNLPDAEILKMTKPPFVMEKWIVGIAKSQTVECTVTYESDVRTPKSTKHVHSIQWSRTKPQDEVKAVQLAIQTLFTNSDGNPGSRSDSSADCQWLDTLRMRQIASNTSLQRSQSNPILGSPFFSHFDGQDSYAAAVRRPQVPIKYQQITPVNQSRSSSPTQYGLTKNFSSLHLNSRDSGFSSGNTDTSSERGRYSDRSRNKYGRGSISLNSSPRGRYSGKSQHSTPSRGRYPGKFYRVSQSALNPHQSPDFKRSPRDLHQPNTIPGMPLHPETDSRASEEDSKVSEGGWTKVEYRKKPHRPSPAKTNKERARGDHRGWRNF | – | recombinant ZAKα is sufficient to phosphorylate SNAP-tagged NLRP1^DR purified from bacteria

— patent US20240148728
